Molecular target: pk3cb_mouse Pik3cb (UniProt Q8BTI9)

Substance: Ras-related C3 botulinum toxin substrate 1 (Mus musculus) (from UniProt P63001) I33D
- effect of a mutation on the interaction: decreasing interaction strength
